Laboratory results: the DeepSol protein solubility set

Test: soluble on expression in E. coli; label from the status in PepcDB or PDB records

Soluble on expression in E. coli, not soluble:
MGSDKIHHHHHHMKTQVLYGKSEIEINVPDDSTIIEPQNIDAIQDYESTIKNVLRNPTNSKPLKEMVNSNDIVSIVISDITRPTPNHILVPLLIEELNHVPRENFVIINGTGTHRDQTRDELIQMLGEDIVNSVKIVHNHCSEKESLAKVGHSQYGCDVYLNKAYVESDFKIVTGFIEPHFFAGFSGGPKGIMPGIAGLETIQTFHNAKMIGDPRSTWGNLEDNPVQDMAREVNRMCKPDFLLNVALNKSKEITAAFAGEIFDTHKEGCAYVKDHAMFKCDQRFDIVIASNSGYPLDQNLYQTVKGMSAASKVVKKDGHIIMVSECADGFPDHGKFAEIFKMADTPQGILELIHNPNFKEVDQWQVQKQASIQTFANVHVYSELTDQQLKDSMLIPTSNIEHTIQELEHRYGRKLTIGVMPQGPLTIPYVEDKE, MLGMHFTPVEVFHRYIMPQIRDHLNDYLWVDMFCGEGNLILPMLDYIDRDRRGEFFRDHIMCFDIDESAVERSIENAMKYGIPQEMARRNIRTRDTLMDYPVLSGRYPVFHITNPPYLYLGYIRKRKDARRHQEYFEGQNDGYQDLYQIAMMNDLRHGIGNMIYIIPSNFFFSDAGTRKIREDFLKIYRIGSCYIFERRIFPSTGTNVMILSFQRSQSPVESIEFDAIRINKHEEKKRYVLRSENNFKPDNEYQDYIRAHFRPDHPVVKFYLTYDEIGKNPGNNRVVLVNSKEYRHGEYERETFSVNDDLYARIKSNPLYVRTVDKGTREGRSGIYSIIRDFGADGIFVKGPTYRTSPIQIFIDPPLSANEALKLMEIFNRTLNDLRERSDSDFMTTYKYSDSAAYVRKYLGLKQVRGIMSTISLEDLKDGASSTDL, MGSDKIHHHHHHMIELCEVTKTYPIYHGHAQRTILDRINLRVGKGQKWGILGRNGAGKSTLIRLISGAERPNTGNIVRNMTVSWPLAFGGAFQGSLTGRDNTRLICRAYGVDFDKTITMVENFAELGSYLWEPVKSYSSGMSARLAFAISISVEFDCFLIDEALAVGDHRFLQKCNVELFENRGDRAMIIVSHQTNIIRTHCDHAAVLENGHLTVHESVDSAIAAYEAL, MGSDKIHHHHHHMPSLFSLYRKIFFGRKPGWDQQPLPHIKVTAPHVTVSETKVSQYAQVCGFQFDGKVLPPTYLYVMAFRLHAVIFTHDGITFPLLGMIHLKNRIQVYRPVTVDETFSLECALTTSRETDSGLEFEFVSKAFVGEELVWESLSTYLYRIDVAGRRVRPPKAIDMAWETPQSWRLSEDLGRRYAKASGDYNLIHLHPVLSKRFGFDRVLAHGMWSKARCLAELMPSIGDRPFTVDVTFKLPLLMPADVGFGYEQNTDNMVFELRDSKGRRPHLSGDVQF, MGSDKIHHHHHHAGCEEEASLSARSVVEAGETEREKTELDKWILDTFTRPYGIEVEYRWDKNAVQNGSYIYPPEVANVKSVLNTIKTLWIDLYTAPELGGDKFLLGKNPLKIYMYGGRNVDGNGMELLDNLEATTNEMFLYNVNDFNPQDEDKVFILMRSVHHQFARHLMELFPYDRSKFLSISRNKYIESTKSIAWIFKGETQGRRGFILAGYPNKKGFFTFHSLLSPEKDFAEIISLKLTYGPKDLLQALDRAKTPYNAGSDKDLQKEYDEQALQAYKELVEKQAFVEDYFSKEIKISLNYLQLISMKQVKEFINKK, MNPDHKEIIMNHIGLFALTAAALLAGCSSNTQQDNYREASFELCNTEVNIYSVSDDGQVRIVCADGAKFALKTEKTLDIMRDINVDYCDGEGLGKFTESNKYYMFKCKSGTMISVSK, MTWEFENPLFVNSSGTAVGPKEKEGPLGHLFDKSYDEMHCNQKNWEMAERKLMEDAVQSALSKQNLKKEDIDIFLAGDLLNQNVTANYVARHLKIPFLCLFGACSTSMESIAISSALIDGGFAKRALAATSSHNATAERQFRYPTEYGGQKPGTATSTVTGSGAVVLSQQPGGIKITSATVGRVIDLGITDSQDMGSAMAPAAADTIKQHLEDLGRTPDDYDLILTGDLSGVGSPILKDLLKEEGINVGTKHNDCGLMIYTPDQQVFAGGSGCACSAVVTFAHIFKEIEAGRLNRVLVVATGALLSPTIIQQKESIPCIAHGVVFERAERGNALEHHHHHH, MEYGCQPNVLKKTILKMVKRRIHVEGAKKAVNEALLNSQAKAAEEICRIAYESPGGVVFLGAPTGAGKTEVFMAPLLASFASKRPIAARGFLVEPMHSLIKAMVDRLKTSIETLGVSEDHGETVQPTFLYTAPITVTTPDTYFYGFAASRVYRILTHEGVETGRFSMPVGLQATSYTVFDEAHLVQDEVFLSPRLLSLVVAALARAGGLIVVSSATLPSYYKTVIREKLGDWRVEEV, MRSGKIFHHFDQWGIIIRKDMLKQLALFIALFGAVTAWNRQNHFGNPCYLCSCFTVYTDRDVAVPLRPYAMAIDGYDTTEDRCLATCQRDQRCRAAVYGMVGGRSVFTCEFYEKFNTKSVPVYTTYVNMYMKRSSECKLPIAHLSSIEMIPADNSSLKRRAKLEKLIGRKNPFLG

Soluble on expression in E. coli, soluble:
MSLAKLNVEVFADGADIEQMKAAYKNKEVDGFTTNPSLMAKAGVTDYKSFAEEAVKEIPDASISFEVFADDLETMEKEAEILKQYGDNVFVKIPVVNTKGESTIPLIKKLSADNVRLNVTAVYTIEQVKEITEAVTEGVPTYISVFAGRIADTGVDPLPLMKESVDVAHSKEGVKLLWASCRELFNVIQADEIGADIITCPADVVKKVNTNLGRDINELSVDTVKGFAKDIQSSGLSEGHHHHHH, MGSSHHHHHHHSSGLVPRGSHMMRKRARIIYNPTSGKEQFKRELPDALIKLEKAGYETSAYATEKIGDATLEAERAMHENYDVLIAAGGDGTLNEVVNGIAEKPNRPKLGVIPMGTVNDFGRALHIPNDIMGALDVIIEGHSTKVDIGKMNNRYFINLAAGGQLTQVSYETPSKLKSIVGPFAYYIKGFEMLPQMKAVDLRIEYDGNVFQGEALLFFLGLTNSMAGFEKLVPDAKLDDGYFTLIIVEKSNLAELGHIMTLASRGEHTKHPKVIYEKAKAINISSFTDLQLNVDGEYGGKLPANFLNLERHIDVFAPNDIVNEELINNDHVDDNLIEE, MEMTSAFTLNVRLDNIAVITIDVPGEKMNTLKAEFASQVRAIIKQLRENKELRGVVFVSAKPDNFIAGADINMIGNCKTAQEAEALARQGQQLMAEIHALPIQVIAAIHGACLGGGLELALACHGRVCTDDPKTVLGLPEVQLGLLPGSGGTQRLPRLIGVSTALEMILTGKQLRAKQALKLGLVDDVVPHSILLEAAVELAKKERPSSRPLPVRERILAGPLGRALLFKMVGKKTEHKTQGNYPATERILEVVETGLAQGTSSGYDAEARAFGELAMTPQSQALRSIFFASTDVKKDPGSDAPPAPLNSVGILGGGLMGGGIAYVTACKAGIPVRIKDINPQGINHALKYSWDQLEGKVRRRHLKASERDKQLALISGTTDYRGFAHRDLIIEAVFENLELKQQMVAEVEQNCAAHTIFASNTSSLPIGDIAAHATRPEQVIGLHFFSPVEKMPLVEIIPHAGTSAQTIATTVKLAKKQGKTPIVVRDKAGFYVNRILAPYINEAIRMLTQGERVEHIDAALVKFGFPVGPIQLLDEVGIDTGTKIIPVLEAAYGERFSAPANVVSSILNDDRKGRKNGRGFYLYGQKGRKSKKQVDPAIYPLIGTQGQGRISAPQVAERCVMLMLNEAVRCVDEQVIRSVRDGDIGAVFGIGFPPFLGGPFRYIDSLGAGEVVAIMQRLATQYGSRFTPCERLVEMGARGESFWKTTATDLQ, STSPLSDLLNLDLSDTKKIIAEYIWIGGSGMDIRSKARTLPGPVSNPTKLPKWNYDGSSTDQAAGDDSEVILYPQAIFKDPFRKGNNILVMCDAYRPAGDPIPTNNRHKAVKIFDHPNVKAEEPWFGIEQGYTLLKKDVKWPLGWPLGGFPGPQGPYYCAVGADKAFGRDIVDAHYKACLYSGLSIGGANGEVMPGQWEFQISPTVGIGAGGQLWVARYILERITEICGVIVSFDPKPIQGDWNGAAAHTNFSTKSMRKDGGLDLIKEAIKKLEVKHKQHIAAYGEGNERRLTGKHETADINTFSWGVADRGASVRVGRDTEKEGKGYFEDRRPSSNMDPYLVTSMIAETTIL, MVKQIESKTAFQEALDAAGDKLVVVDFSATWCGPCKMIKPFFHSLSEKYSNVIFLEVDVDDAQDVAPKYGIRGIPTLLLFKNGEVAATKVGALSKGQLKEFLDANLV
